Target: recombinant human soluble FcγRIIIa glycoprotein with a C-terminal hexahistidine tag (N-glycosylation sites kept at Asn45 and Asn162 only) (human)
Experiment: high-speed atomic force microscopy (HS-AFM), bound-state dwell time

dwell time | stoichiometry N | Substance
1 s | 1 | trastuzumab, anti-HER2 humanized IgG1 (G1m17,1; Km3) (antibody)
1 s | 1 | rituximab, anti-CD20 mouse/human-chimeric IgG1 (G1m17,1; Km3) (antibody)

Source: paper PMC6697678
